Laboratory results as given in publication PMC4832331, “Structural insights into the Escherichia coli lysine decarboxylases and molecular determinants of interaction with the AAA+ ATPase RavA” (Scientific Reports, 2016).

B1: Escherichia coli inducible lysine decarboxylase LdcI (enzyme, E. coli)
chain: MNVIAILNHMGVYFKEEPIRELHRALERLNFQIVYPNDRDDLLKLIENNARLCGVIFDWDKYNLELCEEISKMNENLPLYAFANTYSTLDVSLNDLRLQISFFEYALGAAEDIANKIKQTTDEYINTILPPLTKALFKYVREGKYTFCTPGHMGGTAFQKSPVGSLFYDFFGPNTMKSDISISVSELGSLLDHSGPHKEAEQYIARVFNADRSYMVTNGTSTANKIVGMYSAPAGSTILIDRNCHKSLTHLMMMSDVTPIYFRPTRNAYGILGGIPQSEFQHATIAKRVKETPNATWPVHAVITNSTYDGLLYNTDFIKKTLDVKSIHFDSAWVPYTNFSPIYEGKCGMSGGRVEGKVIYETQSTHKLLAAFSQASMIHVKGDVNEETFNEAYMMHTTTSPHYGIVASTETAAAMMKGNAGKRLINGSIERAIKFRKEIKRLRTESDGWFFDVWQPDHIDTTECWPLRSDSTWHGFKNIDNEHMYLDPIKVTLLTPGMEKDGTMSDFGIPASIVAKYLDEHGIVVEKTGPYNLLFLFSIGIDKTKALSLLRALTDFKRAFDLNLRVKNMLPSLYREDPEFYENMRIQELAQNIHKLIVHHNLPDLMYRAFEVLPTMVMTPYAAFQKELHGMTEEVYLDEMVGRINANMILPYPPGVPLVMPGEMITEESRPVLEFLQMLCEIGAHYPGFETDIHGAYRQADGRYTVKVLKEESKK
notes: LdcI (CadA), inducible lysine decarboxylase of E. coli; wing domain 1-129, core domain 130-563, CTD 564-715; Decamer of two pentameric rings; The whole enzyme (715 residues) is likely; PLP cofactor was in the buffers; also called CadA; LdcIa (at pH 6.2); copies: 10
B3: Escherichia coli AAA+ ATPase RavA (enzyme)
chain: not shown
notes: RavA, AAA+ ATPase of E. coli; It was mixed in the presence of 2 mM ADP and 10 mM MgCl2

Key:
[1] = biological target: the molecule itself; experiment: cryo-EM structure; LdcI alone, 2 mg/ml, 25 mM MES, 100 mM NaCl, 0.2 mM PLP, 1 mM DTT, pH 6.2; no ppGpp
[2] = biological target: the molecule itself; experiment: cryo-EM structure; LdcC alone, 2 mg/ml, 25 mM HEPES, 100 mM NaCl, 0.2 mM PLP, 1 mM DTT, pH 7.2 (results say pH 7.5); no ppGpp
[3] = biological target: B1; experiment: negative stain EM; 0.4 mg/ml RavA mixed with 0.3 mg/ml LdcI, LdcC, LdcCI or LdcIC; 2 mM ADP, 10 mM MgCl2, 20 mM Hepes, 150 mM NaCl, pH 7.4; 10 min at room temperature; 2% uranyl acetate; conditions: both partners purified
[4] = biological target: the molecule itself; experiment: not stated; purified chimeras alone; decamers 'visually indistinguishable from the wild-type proteins'
[5] = biological target: B3; experiment: negative stain EM; 0.4 mg/ml RavA mixed with 0.3 mg/ml LdcI, LdcC, LdcCI or LdcIC; 2 mM ADP, 10 mM MgCl2, 20 mM Hepes, 150 mM NaCl, pH 7.4; 10 min at room temperature; 2% uranyl acetate; conditions: both partners purified

## B1
[1]
  stoichiometry N: 10

B2: Escherichia coli biosynthetic lysine decarboxylase LdcC (enzyme, E. coli)
chain: MNIIAIMGPHGVFYKDEPIKELESALVAQGFQIIWPQNSVDLLKFIEHNPRICGVIFDWDEYSLDLCSDINQLNEYLPLYAFINTHSTMDVSVQDMRMALWFFEYALGQAEDIAIRMRQYTDEYLDNITPPFTKALFTYVKERKYTFCTPGHMGGTAYQKSPVGCLFYDFFGGNTLKADVSISVTELGSLLDHTGPHLEAEEYIARTFGAEQSYIVTNGTSTSNKIVGMYAAPSGSTLLIDRNCHKSLAHLLMMNDVVPVWLKPTRNALGILGGIPRREFTRDSIEEKVAATTQAQWPVHAVITNSTYDGLLYNTDWIKQTLDVPSIHFDSAWVPYTHFHPIYQGKSGMSGERVAGKVIFETQSTHKMLAALSQASLIHIKGEYDEEAFNEAFMMHTTTSPSYPIVASVETAAAMLRGNPGKRLINRSVERALHFRKEVQRLREESDGWFFDIWQPPQVDEAECWPVAPGEQWHGFNDADADHMFLDPVKVTILTPGMDEQGNMSEEGIPAALVAKFLDERGIVVEKTGPYNLLFLFSIGIDKTKAMGLLRGLTEFKRSYDLNLRIKNMLPDLYAEDPDFYRNMRIQDLAQGIHKLIRKHDLPGLMLRAFDTLPEMIMTPHQAWQRQIKGEVETIALEQLVGRVSANMILPYPPGVPLLMPGEMLTKESRTVLDFLLMLCSVGQHYPGFETDIHGAKQDEDGVYRVRVLK
notes: LdcC, biosynthetic lysine decarboxylase of E. coli; Decamer; PLP cofactor was in the buffers; also called constitutive lysine decarboxylase; copies: 10
[2]
  stoichiometry N: 10

## B3
[3]
  binding result: binds

B4: LdcCI chimera (LdcC with the C-terminal β-sheet of LdcI) (enzyme, E. coli, UniProt P52095 1-630, looked up)
chain: MNIIAIMGPHGVFYKDEPIKELESALVAQGFQIIWPQNSVDLLKFIEHNPRICGVIFDWDEYSLDLCSDINQLNEYLPLYAFINTHSTMDVSVQDMRMALWFFEYALGQAEDIAIRMRQYTDEYLDNITPPFTKALFTYVKERKYTFCTPGHMGGTAYQKSPVGCLFYDFFGGNTLKADVSISVTELGSLLDHTGPHLEAEEYIARTFGAEQSYIVTNGTSTSNKIVGMYAAPSGSTLLIDRNCHKSLAHLLMMNDVVPVWLKPTRNALGILGGIPRREFTRDSIEEKVAATTQAQWPVHAVITNSTYDGLLYNTDWIKQTLDVPSIHFDSAWVPYTHFHPIYQGKSGMSGERVAGKVIFETQSTHKMLAALSQASLIHIKGEYDEEAFNEAFMMHTTTSPSYPIVASVETAAAMLRGNPGKRLINRSVERALHFRKEVQRLREESDGWFFDIWQPPQVDEAECWPVAPGEQWHGFNDADADHMFLDPVKVTILTPGMDEQGNMSEEGIPAALVAKFLDERGIVVEKTGPYNLLFLFSIGIDKTKAMGLLRGLTEFKRSYDLNLRIKNMLPDLYAEDPDFYRNMRIQDLAQGIHKLIRKHDLPGLMLRAFDTLPEMIMTPHQAWQRQIKGMTEEVYLDEMVGRVSANMILPYPPGVPLLMPGEMLTKESRTVLDFLLMLCSVGQHYPGFETDIHGAYRQADGRYTVKVLKEESKK
notes: E. coli LdcC up to the first exchanged stretch; E. coli LdcI, first strand region of the C-terminal β-sheet; E. coli LdcC between the two exchanged stretches; E. coli LdcI from 697 to the C-terminus, second strand region of the C-terminal β-sheet; Synthetic ldcCI gene of 2154 bp (GenScript) in the pET-TEV vector; source: E. coli Rosetta 2 (DE3), purified (Ni-NTA, TEV cleavage, second Ni-NTA, …)
[4]
  stoichiometry N: 10
[5]
  binding result: binds

B5: LdcIC chimera (LdcI with the C-terminal β-sheet of LdcC) (enzyme, E. coli, UniProt P0A9H3 1-630, looked up)
chain: MNVIAILNHMGVYFKEEPIRELHRALERLNFQIVYPNDRDDLLKLIENNARLCGVIFDWDKYNLELCEEISKMNENLPLYAFANTYSTLDVSLNDLRLQISFFEYALGAAEDIANKIKQTTDEYINTILPPLTKALFKYVREGKYTFCTPGHMGGTAFQKSPVGSLFYDFFGPNTMKSDISISVSELGSLLDHSGPHKEAEQYIARVFNADRSYMVTNGTSTANKIVGMYSAPAGSTILIDRNCHKSLTHLMMMSDVTPIYFRPTRNAYGILGGIPQSEFQHATIAKRVKETPNATWPVHAVITNSTYDGLLYNTDFIKKTLDVKSIHFDSAWVPYTNFSPIYEGKCGMSGGRVEGKVIYETQSTHKLLAAFSQASMIHVKGDVNEETFNEAYMMHTTTSPHYGIVASTETAAAMMKGNAGKRLINGSIERAIKFRKEIKRLRTESDGWFFDVWQPDHIDTTECWPLRSDSTWHGFKNIDNEHMYLDPIKVTLLTPGMEKDGTMSDFGIPASIVAKYLDEHGIVVEKTGPYNLLFLFSIGIDKTKALSLLRALTDFKRAFDLNLRVKNMLPSLYREDPEFYENMRIQELAQNIHKLIVHHNLPDLMYRAFEVLPTMVMTPYAAFQKELHGEVETIALEQLVGRINANMILPYPPGVPLVMPGEMITEESRPVLEFLQMLCEIGAHYPGFETDIHGAKQDEDGVYRVRVLKMAG
notes: E. coli LdcI up to the first exchanged stretch; E. coli LdcC, first strand region of the C-terminal β-sheet; E. coli LdcI between the two exchanged stretches; E. coli LdcC from 697 to the C-terminus, second strand region of the C-terminal β-sheet; Synthetic ldcIC gene of 2148 bp (GenScript) in the pET-TEV vector; source: E. coli Rosetta 2 (DE3), purified (Ni-NTA, TEV cleavage, second Ni-NTA, …)
[4]
  stoichiometry N: 10
